Here are results for one protein from article doi:10.1101/2025.02.18.638932, “CHIP protects lysosomes from CLN4 mutant-induced membrane damages” (bioRxiv, 2025).

This data set concerns the molecule itself. The data set can be described thus: immunoblotting of SDS-resistant high molecular weight species; purified DNAJC5 protein incubated with buffer or calf liver cytosol with or without ATP at 37 °C for 30 min, then immunoblotting. For orientation: In western blotting, separated proteins are transferred to a membrane and probed.

B1: recombinant human DNAJC5 L116Δ (natural protein, UniProt Q9H3Z4 1-198, looked up)
chain: MADQRQRSLSTSGESLYHVLGLDKNATSDDIKKSYRKLALKYHPDKNPDNPEAADKFKEINNAHAILTDATKRNIYDKYGSLGLYVAEQFGEENVNTYFVLSSWWAKALFVFCGLTCCYCCCCLCCCFNCCCGKCKPKAPEGEETEFYVSPEDLEAQLQSDEREATDTPIVIQPASATETTQLTADSHPSYHTDGFN
notes: DNAJC5, human, CLN4 disease mutant L116Δ (p.L116del, c.346-348del); A TEV cleavage site lies between the GST tag and the protein; also called hDNAJC5 L116Δ; purified L116Δ mutant; source: E. coli BL21(DE3), purified (Glutathione Sepharose, eluted by TEV protease)
Regarding B1, the binding result is reported as “binds”.
